Source: the supplement of paper PMC10567573

B1: BTBD1 (parent)
chain: YGSIHGPTDYQVNIQIIEYEKKQT
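Note: lentivirally expressed fusions sorted by FACS into six bins by GFP to DsRed ratio, PSI derived from sequencing read proportions per bin multiplied by bin number.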

Variants of: B1
Assay: protein stability index of a GFP-peptide fusion (GPS, HEK-293T) (PSI 1-6); higher = more stable
Conditions: c terminus: a fixed tail appended
Variant YGSIHGPTDYQVNIQIIEYEKVQT [K22V] has a protein stability index of 2.54. For YGSIHGPTDYQVNIQIIEYEKHQT [K22H], the protein stability index was 2.03. Variant YGSIHGPTDYQVNIQIIEYEKDQT [K22D] has a protein stability index of 2.77. Work on YGSIHGPTDYQVNIQIIEYEKGQT [K22G] yielded a protein stability index of 2.24. For YGSIHGPTDYQVNIQIIEYEKEQT [K22E], the protein stability index was 2.96. In the case of YGSIHGPTDYQVNIQIIEYEKAQT [K22A], the protein stability index is reported as 2.18. YGSIHGPTDYQVNIQIIEYEKKQP [T24P] showed a protein stability index of 2.3. In the case of YGSIHGPTDYQVNIQIIEYEKKQI [T24I], the protein stability index is reported as 2.08. With YGSIHGPTDYQVNIQIIEYEKKQG [T24G] the protein stability index was 2.57. YGSIHGPTDYQVNIQIIEYEKKQL [T24L] gave a protein stability index of 2.03. Work on YGSIHGPTDYQVNIQIIEYEKKQV [T24V] yielded a protein stability index of 2.43. YGSIHGPTDYQVNIQIIEYEKKQR [T24R] gave a protein stability index of 2.69. YGSIHGPTDYQVNIQIIEYEKKQC [T24C] gave a protein stability index of 2.16. Variant YGSIHGPTDYQVNIQIIEYEKKQE [T24E] has a protein stability index of 3.08. For YGSIHGPTDYQVNIQIIEYEKKQQ [T24Q], the protein stability index was 3.18. In the case of YGSIHGPTDYQVNIQIIEYEKKQS [T24S], the protein stability index is reported as 2.98. Variant YGSIHGPTDYQVNIQIIEYEKKQK [T24K] has a protein stability index of 3.05. Work on YGSIHGPTDYQVNIQIIEYEKKQM [T24M] yielded a protein stability index of 2.36. With YGSIHGPTDYQVNIQIIEYEKKQD [T24D] the protein stability index was 3.18. With YGSIHGPTDYQVNIQIIEYEKKQH [T24H] the protein stability index was 2.9. For YGSIHGPTDYQVNIQIIEYEKKQA [T24A], the protein stability index was 3.1. With YGSIHGPTDYQVNIQIIEYEKKQN [T24N] the protein stability index was 2.9. Work on YGSIHGPTDYQVNIQIIEYEKKQF [T24F] yielded a protein stability index of 1.84. With YGSIHGPTDYQVNIQIIEYEKKQW [T24W] the protein stability index was 2.23. In the case of YGSIHGPTDYQVNIQIIEYEKKQY [T24Y], the protein stability index is reported as 2.21. YGSIHGPTDYQVNIQIIEYESKQT [K21S] gave a protein stability index of 2.13. YGSIHGPTDYQVNIQIIEYEVKQT [K21V] gave a protein stability index of 1.59. In the case of YGSIHGPTDYQVNIQIIEYEAKQT [K21A], the protein stability index is reported as 1.82. YGSIHGPTDYQVNIQIIEYECKQT [K21C] showed a protein stability index of 1.96. Work on YGSIHGPTDYQVNIQIIEYEEKQT [K21E] yielded a protein stability index of 2.7. For YGSIHGPTDYQVNIQIIEYEFKQT [K21F], the protein stability index was 3.75. YGSIHGPTDYQVNIQIIEYEDKQT [K21D] gave a protein stability index of 2.46. Variant YGSIHGPTDYQVNIQIIEYEWKQT [K21W] has a protein stability index of 2.8. Variant YGSIHGPTDYQVNIQIIEYEYKQT [K21Y] has a protein stability index of 1.92. YGSIHGPTDYQVNIQIIEYEIKQT [K21I] showed a protein stability index of 2.42. In the case of YGSIHGPTDYQVNIQIIEYEGKQT [K21G], the protein stability index is reported as 2.04. Work on YGSIHGPTDYQVNIQIIEYENKQT [K21N] yielded a protein stability index of 2.32. In the case of YGSIHGPTDYQVNIQIIEYEPKQT [K21P], the protein stability index is reported as 1.95. Variant YGSIHGPTDYQVNIQIIEYEQKQT [K21Q] has a protein stability index of 2.52. With YGSIHGPTDYQVNIQIIEYEHKQT [K21H] the protein stability index was 1.83. Variant YGSIHGPTDYQVNIQIIEYERKQT [K21R] has a protein stability index of 2.25. In the case of YGSIHGPTDYQVNIQIIEYETKQT [K21T], the protein stability index is reported as 2.24. In the case of YGSIHGPTDYQVNIQIIEYELKQT [K21L], the protein stability index is reported as 1.65. In the case of YGSIHGPTDYQVNIQIIEYEMKQT [K21M], the protein stability index is reported as 2.02. For YGSIHGPTDYQVNIQIIEYEKKKT [Q23K], the protein stability index was 2.74. In the case of YGSIHGPTDYQVNIQIIEYEKKET [Q23E], the protein stability index is reported as 2.72. Work on YGSIHGPTDYQVNIQIIEYEKKAT [Q23A] yielded a protein stability index of 2.33. Work on YGSIHGPTDYQVNIQIIEYEKKMT [Q23M] yielded a protein stability index of 2.18. Work on YGSIHGPTDYQVNIQIIEYEKKWT [Q23W] yielded a protein stability index of 2.56. YGSIHGPTDYQVNIQIIEYEKKHT [Q23H] showed a protein stability index of 2.31. With YGSIHGPTDYQVNIQIIEYEKKST [Q23S] the protein stability index was 2.43. In the case of YGSIHGPTDYQVNIQIIEYEKKTT [Q23T], the protein stability index is reported as 2.13. In the case of YGSIHGPTDYQVNIQIIEYEKKPT [Q23P], the protein stability index is reported as 2.28. For YGSIHGPTDYQVNIQIIEYEKKCT [Q23C], the protein stability index was 1.8. Work on YGSIHGPTDYQVNIQIIEYEKKNT [Q23N] yielded a protein stability index of 2.88. In the case of YGSIHGPTDYQVNIQIIEYEKKVT [Q23V], the protein stability index is reported as 2.12. Variant YGSIHGPTDYQVNIQIIEYEKKFT [Q23F] has a protein stability index of 1.61. For YGSIHGPTDYQVNIQIIEYEKKYT [Q23Y], the protein stability index was 1.93. Work on YGSIHGPTDYQVNIQIIEYEKKIT [Q23I] yielded a protein stability index of 1.81. Variant YGSIHGPTDYQVNIQIIEYEKKRT [Q23R] has a protein stability index of 2.51. YGSIHGPTDYQVNIQIIEYEKKGT [Q23G] gave a protein stability index of 2.76. In the case of YGSIHGPTDYQVNIQIIEYEKKLT [Q23L], the protein stability index is reported as 1.6. With YGSIHGPTDYQVNIQIIEYEKKDT [Q23D] the protein stability index was 2.46. Work on YGSIHGPTDYQVNIQIISYEKKQT [E18S] yielded a protein stability index of 1.88. Work on YGSIHGPTDYQVNIQIIKYEKKQT [E18K] yielded a protein stability index of 2.61. YGSIHGPTDYQVNIQIINYEKKQT [E18N] showed a protein stability index of 2.17. Work on YGSIHGPTDYQVNIQIIWYEKKQT [E18W] yielded a protein stability index of 3.17. Work on YGSIHGPTDYQVNIQIIVYEKKQT [E18V] yielded a protein stability index of 3.19. Work on YGSIHGPTDYQVNIQIIYYEKKQT [E18Y] yielded a protein stability index of 3.61. For YGSIHGPTDYQVNIQIITYEKKQT [E18T], the protein stability index was 2.07. Work on YGSIHGPTDYQVNIQIIIYEKKQT [E18I] yielded a protein stability index of 3.84. With YGSIHGPTDYQVNIQIIDYEKKQT [E18D] the protein stability index was 2.64. Variant YGSIHGPTDYQVNIQIIHYEKKQT [E18H] has a protein stability index of 1.84. Work on YGSIHGPTDYQVNIQIIRYEKKQT [E18R] yielded a protein stability index of 1.85. For YGSIHGPTDYQVNIQIIFYEKKQT [E18F], the protein stability index was 3.79. In the case of YGSIHGPTDYQVNIQIIPYEKKQT [E18P], the protein stability index is reported as 2.17. For YGSIHGPTDYQVNIQIIGYEKKQT [E18G], the protein stability index was 2.24. YGSIHGPTDYQVNIQIILYEKKQT [E18L] gave a protein stability index of 3.33. Variant YGSIHGPTDYQVNIQIIMYEKKQT [E18M] has a protein stability index of 2.44. With YGSIHGPTDYQVNIQIIAYEKKQT [E18A] the protein stability index was 1.71. Variant YGSIHGPTDYQVNIQIIQYEKKQT [E18Q] has a protein stability index of 2.1. Variant YGSIHGPTDYQVNIQIICYEKKQT [E18C] has a protein stability index of 1.86. For YGSIHGPTDYQVNIQIWEYEKKQT [I17W], the protein stability index was 2.71. With YGSIHGPTDYQVNIQIKEYEKKQT [I17K] the protein stability index was 3.53. In the case of YGSIHGPTDYQVNIQIREYEKKQT [I17R], the protein stability index is reported as 2.87. In the case of YGSIHGPTDYQVNIQIQEYEKKQT [I17Q], the protein stability index is reported as 3.35. For YGSIHGPTDYQVNIQISEYEKKQT [I17S], the protein stability index was 3.31. YGSIHGPTDYQVNIQINEYEKKQT [I17N] showed a protein stability index of 3.33. In the case of YGSIHGPTDYQVNIQIYEYEKKQT [I17Y], the protein stability index is reported as 2.77. YGSIHGPTDYQVNIQILEYEKKQT [I17L] gave a protein stability index of 2.68. YGSIHGPTDYQVNIQIMEYEKKQT [I17M] showed a protein stability index of 2.81. With YGSIHGPTDYQVNIQIPEYEKKQT [I17P] the protein stability index was 3.44. In the case of YGSIHGPTDYQVNIQITEYEKKQT [I17T], the protein stability index is reported as 3.47. With YGSIHGPTDYQVNIQIVEYEKKQT [I17V] the protein stability index was 2.68.
